{
  "source": "patent US20190309044A1",
  "about": "“POLYPEPTIDES AND USES THEREOF AS A DRUG FOR TREATMENT OF AUTOIMMUNE DISORDERS” (Compugen Ltd., priority 2017, published 2019)",
  "key": {"SJL/J mice": {"tested_on": "SJL/J mice", "experiment": "BBB breakdown and inflammation by fluorescence molecular tomography, adoptive transfer R-EAE", "format": "in vivo, mouse", "details": "Day +30", "description": "Commercially available near infrared (NIR) imaging agents were used to perform tomographic imaging (PerkinElmer Inc., Boston, Mass.). AngioSense®750 was used as a vascular imaging agent, and Cat B® 680 FAST was used to detect regions of increased lysosomal cathepsin B activity. For the in vivo imaging, mice were injected intravenously with 4 nmol of NIR fluorescent agent 24 hrs prior to imaging, and imaged following the last treatment with Control Ig or C1ORF32 ECD-Fc (SEQ ID NO: 42) (Day +30 post-PLP139-151 blast cell transfer). At the time of imaging, mice were anesthetized by administration of sodium pentobarbital (50 mg/kg) and then imaged using the FMT 2500 fluorescence molecular tomography in vivo imaging system (PerkinElmer Inc., Boston, Mass.). […] Appropriate optical filters allowed the collection of both fluorescence and excitation datasets, and the multiple source-detector fluorescence projections were normalized to the paired collection of laser excitation data. […] The collected fluorescence data was reconstructed by FMT 2500 system software (TrueQuant, PerkinElmer Inc., Boston, Mass.) which compensates for the effects of tissue heterogeneity on light scattering, allowing for the quantification of fluorescence signal within multiple organ regions. […] All data was normalized to fluorescence detected in CFA/saline-immunized healthy control mice. […]"}, "male DBA/1OlaHsd mice": {"tested_on": "male DBA/1OlaHsd mice", "experiment": "CIA, early stage treatment from day 18", "format": "in vivo, mouse", "details": "3.3 mg/kg", "from_the_text": "The aim of this study was to estimate the effect of C1ORF32-P8-V1-ECD-mFc (SEQ ID NO:42) on disease development in a type II Collagen induced arthritis (CIA) mouse model upon administration at early stage of disease; i.e., when specific and predictive markers for RA development are present in the serum, but before onset of clinical symptoms.\nIn the CIA model, arthritis is induced by immunization with type II collagen in CFA on day 1 which is followed by boosting with type II collagen in CFA on day 21. Antibodies against both CII and cyclic citrullinated peptide (CCPs) appear early after immunization, before joint swelling is observed.\nTo evaluate the effect of early stage treatment with C1ORF32-P8-V1-ECD-mFc (SEQ ID NO:42) on disease development treatment started on day 18 and was given IP injection, Q2D to mice from day 18 until day 32.\nMale DBA/101aHsd mice weighing 16-25 grams (mean 22 g) on day 18 of the study were obtained from Harlan, Inc., Indianapolis, Ind. Mice (10/group) were anaesthetized with Isoflurane, shaved at the base of the tail, and injected intradermally with 150 μl of Freund's Complete Adjuvant (Sigma) containing bovine type II collagen (Elastin Products, Owensville, Mo.) (2 mg/ml) at the base of the tail on day 0 and again on day 21. On study day 18, mice were randomized by body weight into treatment groups. […]"}},
  "data": [
    {"molecule": "C1ORF32 ECD-Fc (SEQ ID NO:42): human-mouse fusion protein: human C1ORF32 ECD fused to mouse immunoglobulin Fc (SEQ ID NO:42) (protein, Fusion protein human C1ORF32-ECD fused to mouse IgG2a Fc) LQVTVPDKKKVAMLFQPTVLRCHFSTSSHQPAVVQWKFKSYCQDRMGESLGMSSTRAQSLSKRNLEWDPYLDCLDSRRTVRVVASKQGSTVTLGDFYRGREITIVHDADLQIGKLMWGDSGLYYCIITTPDDLEGKNEDSVELLVLGRTGLLADLLPSFAVEIMGSENLYFQGSGEPRGPTIKPCPPCKCPAPNLLGGPSVFIFPPKIKDVLMISLSPIVTCVVVDVSEDDPDVQISWFVNNVEVHTAQTQTHREDYNSTLRVVSALPIQHQDWMSGKEFKCKVNNKDLPAPIERTISKPKGSVRAPQVYVLPPPEEEMTKKQVTLTCMVTDFMPEDIYVEWTNNGKTELNYKNTEPVLDSDGSYFMYSKLRVEKKNWVERNSYSCSVVHEGLHNHHTTKSFSRTPGK", "values": [
      {"measurement": "monocyte/macrophage activity in the brain and spinal cord (lysosomal CathepsinB activity)", "setting": "SJL/J mice; did not reach statistical significance", "value": "decreased monocyte/macrophage activity"},
      {"measurement": "vascular leakage in the brain and spinal cord (AngioSense)", "setting": "SJL/J mice; significantly reduced levels", "value": "decreased vascular leakage"},
      {"measurement": "effect of lower dose", "setting": "male DBA/1OlaHsd mice", "value": "No effect"}
    ]}
  ]
}
